Experimental data taken from patent publication US6207419A, “Thrombin inhibitory agents and methods of using same” (The University of North Carolina at Chapel Hill, priority 1999, dated 2001).

Experiments:
thrombin [1] = assay: Thrombin inhibition in the absence of glycosaminoglycan; format: biochemical, human
Description: All assays were performed at room temperature in 96-well microtiter plates previously coated with 2 mg/mL BSA.
(§1) Residual thrombin activity was measured with 150 μM GlyProArg-NA and 1 mg/mL pB in the absence of glycosaminoglycan, 2 mg/mL pB in the presence of heparin and 4 mg/mL in the presence of dermatan sulfate. Residual factor Xa activity was measured with 500 μM Spectrozyme FXa and 2mg/mL pB in the presence or absence of glycosaminoglycan. Residual chymotrypsin activity was measured with 150 μM AlaAlaProPhe-NA and residual trypsin activity was measured with 150 μM GlyProArg-NA.
(§2) Assays were performed at least in triplicate on two or more recombinant protein preparations.

chymotrypsin = assay: Chymotrypsin inhibition in the absence of glycosaminoglycan; format: biochemical; settings: pH 7.4, mean ± S.D.
Description: (§3) Protease inhibition rates were determined as described previously (Rogers, S. J., Pratt, C. W., Whinna, H. C., and Church, F. C. (1992) J. Biol. Chem. 267(6), 3613-3617; Whinna, H. C., Choi, H. U., Rosenberg, L. C., and Church, F. C. (1993) J. Biol. Chem. 268, 3920-3924; Ciaccia, A. V., Cunningham, E. L., and Church, F. C. (1995) Protein Express. Purific. 6, 806-812; Ciaccia, A. V., Willemze, A. J., and Church, F. C. (1997) J. Biol. Chem. 272(2), 888-893). All assays were performed at room temperature in 96-well microtiter plates previously coated with 2 mg/mL BSA.
In the absence of glycosaminoglycan, 50-100 nM rHCII (wt, CHis6, CHis5 Pro, L444R, or L444R-CHis6) or rATIII (wt or CHis6) was incubated with 1 nM thrombin, 0.5 nM Factor Xa, 2 nM chymotrypsin, or 5 nM trypsin, in the presence of 1 mg/mL Polybrene (pB) (for thrombin and Factor Xa) and 2 mg/mL BSA in HNPN, pH 7.4.
as §1, with “GlyProArg-NA. Substrate cleavage was measured by color development at […] on a Vmax Kinetic Microplate Reader (Molecular Devices).” for “GlyProArg-NA.”
(§4) Assays were performed at least in triplicate on two or more recombinant protein preparations. All inhibition studies were measured under pseudo-first order conditions where inhibitor [I] is at least ten-fold higher than enzyme (protease) [E], and second-order rate constants were calculated as described previously (Ciaccia, A. V., Cunningham, E. L., and Church, F. C. (1995) Protein Express. Purific. 6, 806-812; Ciaccia, A. V., Willemze, A. J., and Church, F. C. (1997) J. Biol. Chem. 272(2), 888-893).

[2] = target: T1, plasma purified α-thrombin (Homo sapiens, UniProt P00734); assay: Thrombin inhibition in the presence of glycosaminoglycans (heparin or dermatan sulfate); format: biochemical; settings: for maximal rate of thrombin inhibition in the presence of dermatan sulfate: dermatan sulfate at optimal concentration; for maximal rate of thrombin inhibition in the presence of heparin: heparin at optimal concentration
T1 construct: Human α-thrombin, HCII, and ATIII were purified in our laboratory from plasma; from tissue; host or cells: human plasma (purified in the authors' laboratory)
Description: as §3
In the presence of glycosaminoglycans, 5 nM rHCII (wt, CHis6, CHis5 Pro, L444R, or L444R-CHis6) was incubated with 0.5 nM thrombin and 0-1 mg/mL heparin or 0-4 mg/mL dermatan sulfate or 10 nM rATIII (wt or CHis6) was incubated with 1 nM thrombin or factor Xa and 0-1 mg/mL heparin in the presence of 2 mg/mL BSA in HNPN, pH 7.4.
as §1, with “GlyProArg-NA. Substrate cleavage was measured by color development at […] on a Vmax Kinetic Microplate Reader (Molecular Devices).” for “GlyProArg-NA.”
as §4

[3] = Heparin-Sepharose affinity chromatography; format: binding; settings: NaCl gradient, 20 mM Hepes pH 7.4
Description: 100 μL of each fraction was aliquoted onto a 96-well microtiter plate and ELISA was performed. The peak elution ionic strength was determined by plotting 405 nm color development and NaCl concentration against the fraction number. All samples were run at least in triplicate using two or more protein preparations. Recombinant ATIII samples were run similarly to the HCII samples, except the elution gradient was run from 50 mM to 2 M NaCl.

α-thrombin = target: T2, α-thrombin (Homo sapiens, UniProt P00734); assay: Effect of hirugen on thrombin inhibition in the absence of glycosaminoglycan; format: biochemical; settings: for rate constant of inhibition (k2) in the absence of peptide: no hirugen, no control peptide, FIG. 5
T2 construct: Human α-thrombin, HCII, and ATIII were purified in our laboratory from plasma; from tissue; host or cells: human plasma (purified in the authors' laboratory)
Description: as §1, §2

thrombin [4] = assay: Plasma-based thrombin inhibition assay; format: biochemical, human; settings: 10 nM serpin
Description: The assay to evaluate rHCII (wt and rHCII-CHis6) in plasma was designed based on previously published methods (Tollefsen, D. M., and Pestka, C. A. (1985) Blood 66(4), 769-774; Griffith, M. J., Carraway, T., White, G. C., and Dombrose, F. A. (1983) Blood 61(1), 111-118). All assays were performed at room temperature in 96-well microtiter plates previously coated with 2 mg/mL BSA. This assay was performed using normal hemostasis reference plasma (REF), human antithrombin III-deficient plasma (DEF), or a 50:50 mixture of these plasmas (REF/DEF). Within the assay, 10 nM rHCII or rHCII-CHis6 was incubated for 15 sec with I nM thrombin and 1 μg/mL heparin or 50 μg/mL dermatan sulfate, in the presence of a 1:100 dilution of plasma. Residual thrombin activity was measured with 300 μM GPA and 2 mg/mL pB. Substrate cleavage was measured by color development at […] on a Vmax Kinetic Microplate Reader. Second order rate constants were measured at least in triplicate on two recombinant protein preparations as described in Example 4.

[5] = tested on: plasma-purified α-thrombin; assay: Thrombin inhibition with heparin before and after carboxypeptidase A digest; format: biochemical, human; settings: 2 hr, room temperature, FIG. 3
Description: Forty ng of CPA was combined with approximately 1 μg of recombinant protein and incubated at room temperature. Following a 2-hr incubation at room temperature, 2 mM EDTA was added to quench CPA activity. Controls were run in which EDTA was added to the reaction prior to the addition of CPA. CPA digested proteins were then assayed according to previously mentioned procedures.

[6] = hirugen 20 μM, absence of glycosaminoglycan

B1: wt-rHCII: Human wild type recombinant heparin cofactor II expressed in the baculovirus expression system (protein, UniProt P05546 20-499, looked up)
Heparin cofactor 2: GSKGPLDQLEKGGETAQSADPQWEQLNNKNLSMPLLPADFHKENTVTNDWIPEGEEDDDYLDLEKIFSEDDDYIDIVDSLSVSPTDSDVSAGNILQLFHGKSRIQRLNILNAKFAFNLYRVLKDQVNTFDNIFIAPVGISTAMGMISLGLKGETHEQVHSILHFKDFVNASSKYEITTIHNLFRKLTHRLFRRNFGYTLRSVNDLYIQKQFPILLDFKTKVREYYFAEAQIADFSDPAFISKTNNHIMKLTKGLIKDALENIDPATQMMILNCIYFKGSWVNKFPVEMTHNHNFRLNEREVVKVSMMQTKGNFLAANDQELDCDILQLEYVGGISMLIVVPHKMSGMKTLEAQLTPRVVERWQKSMTNRTREVLLPKFKLEKNYNLVESLKLMGIRMLFDKNGNMAGISDQRIAIDLFKHQGTITVNEEGTQATTVTTVGFMPLSTQVRFTVDRPFLFLIYEHRTSCLLFMGRVANPSRS
- k2 × 10^4 (M^-1 min^-1), thrombin (thrombin [1]; pH 7.4, mean ± S.D.): 1.30 ± .19 × 10^4 (M^-1 min^-1)
- k2 × 10^4 (M^-1 min^-1), chymotrypsin (chymotrypsin): 71.0 ± 12 × 10^4 (M^-1 min^-1)
- average dermatan sulfate concentration at which the maximal rate was measured (in parentheses), thrombin ([2]; Thrombin + dermatan sulfate, unit not printed in table (text b157: μg/mL)): 500
- average heparin concentration at which the maximal rate was measured (in parentheses), thrombin ([2]; Thrombin + heparin, unit not printed in table (text b156: μg/mL)): 50
- dermatan sulfate concentration at maximal rate of thrombin inhibition [2]: approximately 500 μg/mL
- maximal rate of thrombin inhibition in the presence of dermatan sulfate [2]: 1.52±0.31×10^9 M^-1 min^-1
- heparin concentration at maximal rate of thrombin inhibition [2]: 50 to 100 µg/mL
- maximal rate of thrombin inhibition in the presence of heparin [2]: 9.29±2.8×10^8 M^-1 min^-1
- Inhibition Rate k2 × 10^8 (M^-1 min^-1), Thrombin + dermatan sulfate ([2]; maximal rate of dermatan sulfate curve, mean ± S.D.): 15.2 ± 3.1 × 10^8 (M^-1 min^-1)
- Inhibition Rate k2 × 10^8 (M^-1 min^-1), Thrombin + heparin ([2]; maximal rate of heparin curve, mean ± S.D.): 9.29 ± 2.8 × 10^8 (M^-1 min^-1)
- Heparin-Sepharose [NaCl], peak elution concentration [3]: 350 mM
- reduction of rate of thrombin inhibition by hirugen (α-thrombin; [6]): > 50%
- rate constant of inhibition (k2) in the absence of peptide (α-thrombin): 253 M⁻¹ s⁻¹
- Inhibition Rate k2 × 10^8 (M^-1 min^-1), thrombin in plasma (thrombin [4]; Dermatan Sulfate (50 μg/mL), 50:50 Mixture (REF/DEF) plasma 1:100): 5.8 ± .24 × 10^8 (M^-1 min^-1)
- Inhibition Rate k2 × 10^8 (M^-1 min^-1), thrombin in plasma (thrombin [4]; Dermatan Sulfate (50 μg/mL), ATIII Deficient (DEF) plasma 1:100): 6.5 ± .50 × 10^8 (M^-1 min^-1)
- Inhibition Rate k2 × 10^8 (M^-1 min^-1), thrombin in plasma (thrombin [4]; Dermatan Sulfate (50 μg/mL), Normal Reference (REF) plasma 1:100): 5.7 ± .45 × 10^8 (M^-1 min^-1)
- Inhibition Rate k2 × 10^8 (M^-1 min^-1), thrombin in plasma (thrombin [4]; Heparin (1 μg/mL), 50:50 Mixture (REF/DEF) plasma 1:100): 1.9 ± .050 × 10^8 (M^-1 min^-1)
- Inhibition Rate k2 × 10^8 (M^-1 min^-1), thrombin in plasma (thrombin [4]; Heparin (1 μg/mL), ATIII Deficient (DEF) plasma 1:100): .26 ± .050 × 10^8 (M^-1 min^-1)
- Inhibition Rate k2 × 10^8 (M^-1 min^-1), thrombin in plasma (thrombin [4]; Heparin (1 μg/mL), Normal Reference (REF) plasma 1:100): 22 ± .17 × 10^8 (M^-1 min^-1)
- change of heparin-dependent thrombin inhibition after CPA digest, in words [5]: do not drastically change

B2: rHCII-CHis5 Pro: Recombinant HCII mutant with a His5 Pro carboxyl-terminal tag; SEQ ID NO:7 (protein)
chain: MKHSLNALLIFLIITSAWGGSKGPLDQLEKGGETAQSADPQWEQLNNKNLSMPLLPADFHKENTVTNDWIPEGEEDDDYLDLEKIFSEDDDYIDIVDSLSVSPTDSDVSAGNILQLFHGKSRIQRLNILNAKFAFNLYRVLKDQVNTFDNIFIAPVGISTAMGMISLGLKGETHEQVHSILHFKDFVNASSKYEITTIHNLFRKLTHRLFRRNFGYTLRSVNDLYIQKQFPILLDFRTKVREYYFAEAQIADFSDPAFISKTNNHIMKLTKGLIKDALENIDPATQMMILNCIYFKGSWVNKFPVEMTHNHNFRLNEREVVKVSMMQTKGNFLAANDQELDCDILQLEYVGGISMLIVVPHKMSGMKTLEAQLTPRVVERWQKSMTNRTREVLLPKFKLEKNYNLVESLKLMGIRMLFDKNGNMAGISDQRIAIDLFKHQGTITVNEEGTQATTVTTVGFMPLSTQVRFTVDRPFLFLIYEHRTSCLLFMGRVANPSRSHHHHHP
modifications: His5 Pro C-terminal tag
- rate of thrombin inhibition in the absence of glycosaminoglycan (thrombin [1]): 32000 M⁻¹ min⁻¹
- rate of thrombin inhibition relative to wt-rHCII (thrombin [1]): ~ 2 fold
- heparin concentration at maximal rate of thrombin inhibition [2]: 10 µg/mL
- maximal rate of thrombin inhibition in the presence of heparin [2]: 1.87±0.37×10^9 M^-1 min^-1
- change of heparin-dependent thrombin inhibition after CPA digest, in words [5]: does not change appreciably

B3: rHCII-L444R-CHis6: HCII mutant that contains both L444R and a hexahistidine carboxyl tag (protein, UniProt P05546 20-499, looked up, variant L444R)
Heparin cofactor 2: GSKGPLDQLEKGGETAQSADPQWEQLNNKNLSMPLLPADFHKENTVTNDWIPEGEEDDDYLDLEKIFSEDDDYIDIVDSLSVSPTDSDVSAGNILQLFHGKSRIQRLNILNAKFAFNLYRVLKDQVNTFDNIFIAPVGISTAMGMISLGLKGETHEQVHSILHFKDFVNASSKYEITTIHNLFRKLTHRLFRRNFGYTLRSVNDLYIQKQFPILLDFKTKVREYYFAEAQIADFSDPAFISKTNNHIMKLTKGLIKDALENIDPATQMMILNCIYFKGSWVNKFPVEMTHNHNFRLNEREVVKVSMMQTKGNFLAANDQELDCDILQLEYVGGISMLIVVPHKMSGMKTLEAQLTPRVVERWQKSMTNRTREVLLPKFKLEKNYNLVESLKLMGIRMLFDKNGNMAGISDQRIAIDLFKHQGTITVNEEGTQATTVTTVGFMPRSTQVRFTVDRPFLFLIYEHRTSCLLFMGRVANPSRS
modifications: C-terminal His6 tag
- rate of thrombin inhibition in the absence of glycosaminoglycan (thrombin [1]): 1.59±0.26×10^6 M^-1 min^-1
- rate of thrombin inhibition relative to rHCII-CHis6 (thrombin [1]): ~ 100 fold
- rate of thrombin inhibition compared in words with the untagged serpin (thrombin [1]; comparator rHCII-L444R or wt-rATIII as in sentence): not significantly different
- dermatan sulfate concentration at maximal rate of thrombin inhibition [2]: ~ 200 μg/mL
- maximal rate of thrombin inhibition in the presence of dermatan sulfate [2]: 8.81±0.20×10^8 M^-1 min^-1
- heparin concentration at maximal rate of thrombin inhibition [2]: ~ 20 μg/mL
- maximal rate of thrombin inhibition in the presence of heparin [2]: 2.47±0.35×10^8 M^-1 min^-1
- Heparin-Sepharose [NaCl], peak elution concentration [3]: 600 mM
- effect of hirugen on thrombin inhibition, in words (α-thrombin; [6]): less of an effect
- rate constant of inhibition (k2) in the absence of peptide (α-thrombin): 35300 M⁻¹ s⁻¹
